The target in the experiment is 2081/anti-NF IgG, polyclonal antibody generated against the SEVNF peptide. The experiment is described as follows: ORIGEN ECL competition against biotinylated-SEVNF; reference SEVNF.

Molecule SEVNL [SEVNL peptide] displayed a fold less effective in competition than SEVNF of 100 fold.

The record behind these values is patent US20070219354A1.
